Here are results for 5 substances from paper PMC8094900.

Assay [1] concerns the target Myrf N-terminal fragment (wild-type mouse Myrf) (mouse). The experiment in a line: cold western blot (SDS-PAGE in a cold chamber); N-terminally Flag-tagged Myrf constructs expressed in Oli-neu cells; SDS-PAGE in a cold condition, membrane probed with Flag antibodies; ratio of trimeric to monomeric N-terminal fragment. Background: In western blotting, separated proteins are transferred to a membrane and probed.

Assay [2] has as its target Myrf-F387S N-terminal fragment. As to the kind of experiment: cold western blot (cold SDS-PAGE, Flag immunoblot). Conditions: Flag-tagged constructs expressed in Oli-neu cells; SDS-PAGE in a cold condition; parent: est. 0.27; read off a plot.
Assay [3] has as its target Myrf-G435R N-terminal fragment. The experiment in a line: cold western blot (cold SDS-PAGE, Flag immunoblot). Conditions: Flag-tagged constructs expressed in Oli-neu cells; SDS-PAGE in a cold condition; parent: est. 0.27; read off a plot.
Assay [4] has as its target Myrf-L479V N-terminal fragment. The experiment in a line: cold western blot (cold SDS-PAGE, Flag immunoblot). Conditions: Flag-tagged constructs expressed in Oli-neu cells; SDS-PAGE in a cold condition; parent: est. 0.27; read off a plot.
Assay [5] addresses Myrf-Q403H N-terminal fragment. As to the kind of experiment: cold western blot (cold SDS-PAGE, Flag immunoblot). Conditions: Flag-tagged constructs expressed in Oli-neu cells; SDS-PAGE in a cold condition; parent: est. 0.27; read off a plot.

Sequence of Myrf N-terminal fragment (wild-type mouse Myrf) (Q3UR85 whole entry, the tested form may be a part): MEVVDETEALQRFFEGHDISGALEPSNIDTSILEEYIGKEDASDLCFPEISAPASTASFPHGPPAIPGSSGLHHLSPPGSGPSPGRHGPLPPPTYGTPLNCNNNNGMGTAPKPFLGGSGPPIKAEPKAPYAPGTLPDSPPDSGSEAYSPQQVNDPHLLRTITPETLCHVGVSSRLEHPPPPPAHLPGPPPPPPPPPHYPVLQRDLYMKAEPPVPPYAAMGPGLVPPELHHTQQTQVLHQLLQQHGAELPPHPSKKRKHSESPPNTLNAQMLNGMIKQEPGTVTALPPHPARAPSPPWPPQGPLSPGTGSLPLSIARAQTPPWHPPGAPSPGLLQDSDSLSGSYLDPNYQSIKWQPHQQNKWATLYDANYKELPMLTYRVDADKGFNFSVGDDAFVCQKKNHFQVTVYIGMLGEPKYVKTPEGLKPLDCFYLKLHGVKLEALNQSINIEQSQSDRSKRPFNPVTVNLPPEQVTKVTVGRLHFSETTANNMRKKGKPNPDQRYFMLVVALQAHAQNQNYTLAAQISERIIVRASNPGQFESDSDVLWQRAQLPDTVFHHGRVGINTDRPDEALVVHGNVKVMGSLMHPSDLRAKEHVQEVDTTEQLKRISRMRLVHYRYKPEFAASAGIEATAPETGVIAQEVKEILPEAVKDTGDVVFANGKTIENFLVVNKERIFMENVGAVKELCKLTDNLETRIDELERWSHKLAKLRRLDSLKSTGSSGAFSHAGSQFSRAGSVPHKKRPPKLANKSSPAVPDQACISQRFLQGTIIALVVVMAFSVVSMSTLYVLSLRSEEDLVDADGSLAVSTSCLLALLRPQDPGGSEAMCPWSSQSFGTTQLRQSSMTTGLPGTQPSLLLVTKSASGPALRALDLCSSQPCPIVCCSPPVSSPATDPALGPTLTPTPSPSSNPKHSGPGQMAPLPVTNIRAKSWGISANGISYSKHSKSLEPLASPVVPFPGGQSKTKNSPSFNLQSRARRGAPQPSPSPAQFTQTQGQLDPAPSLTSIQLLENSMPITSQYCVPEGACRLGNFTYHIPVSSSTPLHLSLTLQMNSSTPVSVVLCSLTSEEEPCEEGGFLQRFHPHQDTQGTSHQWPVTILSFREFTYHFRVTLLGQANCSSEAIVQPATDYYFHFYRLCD

In general, stoichiometry N refers to a count of units in the complex or per binding partner. Regarding “Myrf N-terminal fragment (wild-type mouse Myrf) (domain or fragment)”, the stoichiometry N in assay [1] was 3.

With “Myrf N-terminal fragment (wild-type mouse Myrf) F387S”, the other: Trimer/(Trimer+Monomer) in assay [2] worked out at 0.045.

“Myrf N-terminal fragment (wild-type mouse Myrf) G435R”: the other: Trimer/(Trimer+Monomer) in assay [3] worked out at 0.02.

“Myrf N-terminal fragment (wild-type mouse Myrf) L479V”: in assay [4], the other: Trimer/(Trimer+Monomer) amounted to 0.01.

For the substance “Myrf N-terminal fragment (wild-type mouse Myrf) Q403H”, the other: Trimer/(Trimer+Monomer) in assay [5] turned out to be 0.08.
